Source: patent US20260069707A1, “COMBINATION THERAPY WITH ANTIBODY-DRUG CONJUGATES AND HYALURONIDASES” (HALOZYME, INC., priority 2024, published 2026)
Read-outs that look alike come from different tables or passages of the source. Marks after values point to notes of the source that are not given here.

Columns and labels:
[1] = Histological analysis (H&E) of post-injection tissue samples; type: in vivo, Yucatan miniature pig (Sus scrofa domestica)
Excerpt: Following the assessment after day three, the animal was humanely euthanized using an injectable euthanasia drug provided by the vivarium staff. Following euthanasia full thickness punch biopsies of the injection site were taken (12 mm) and placed in 10% formalin. After obtaining the punch biopsies the animal carcass was removed and disposed of as biohazardous waste. Sections were made from tissue samples and assessed for histopathology using hematoxylin and eosin staining methods. Analyses were performed on each injection site (2 biopsies) and one untreated site. Three tissue depths were examined from each tissue section following level sectioning technique, representing the beginning, middle and end of each section.
After fixation the samples were processed and embedded into paraffin to make formalin fixed paraffin embedded (FFPE) tissues sections Each tissue section was evaluated at three different tissue depths (1-2-3; low-medium-high). In addition to tissue samples from the injection site, a sample was taken from naïve untreated tissue for comparison.
Each injection was one mL and was delivered using a pre-filled 1-cc syringe. After the last timepoint, the animal was humanely euthanized. After euthanasia, punch biopsies of each injection site were obtained and preserved in 10% formalin for histological analyses.
After fixation, the samples were processed and embedded into paraffin to make formalin fixed paraffin embedded (FFPE) tissues sections Each tissue section was evaluated at three different tissue depths (1-2-3; low-medium-high). In addition to tissue samples from the injection site, a sample was taken from two naïve untreated tissue sites for comparison. Tissue sections were prepared and stained with hematoxylin and eosin for pathohistological evaluation.
Method: After 72h, animals were euthanized and full-thickness punch biopsies taken (12 mm). FFPE sections were prepared from each injection site. Samples were evaluated at three different tissue depths. A sample of naïve skin was also included for comparison. Results: 1/3 tissue samples from ADC alone had multiple focal infiltrates in SC (all levels).

[2] = Linker stability during skin tissue sample preparation (Trodelvy spiked into skin tissue); conditions: 100 μg/mL Trodelvy spiked into skin tissue, protein precipitation, LC-MS/MS
Method: Linker stability during skin tissue sample preparation was assessed by spiking 100 μg/mL Trodelvy into skin tissue, followed by protein precipitation and subsequent sample preparation for LC-MS/MS analysis. Free SN-38 was detected at approximately 10% of the total, which may be attributable to residual impurities in Trodelvy and/or linker hydrolysis occurring during the skin tissue processing steps. FIG. 62 provides the ratio of total ADC to total antibody (TADC/TAB) in skin tissue over time. Table 69 depicts the ratio of total ADC to total antibody in skin tissue homogenates, providing an indication of the extent of intact ADC that is remaining in the SC space over time.

[3] = pig, in vivo
Method: Serum concentrations of total ADC, total antibody and Free Payload (unconjugated SN38) were determined in three separate assays conducted by PPD.
A 20.0-μL sample aliquot was diluted 10-fold. A portion of the diluted sample was taken and processed using an immunoaffinity approach. SMART Digest IA magnetic beads coated with anti-human Fc antibody were used to enrich Trodelvy from matrix. The bound proteins were subjected to “on-bead” proteolysis with trypsin. […] After trypsin digestion, the proteins were further subjected to acidic conditions to release SN-38 from the antibody, which was used for Total ADC quantitation. The following sequences in Table 49 were selected for monitoring in the assay:
VVSV was used for the quantitation of Total Antibody concentrations, DSTY was used for the quantitation of Intact Antibody (trouble shooting purposes only), and SN-38 was used for quantitating Total ADC concentrations.
A nominal unconjugated SN-38, concentration range of […] was chosen to quantitate samples. This assay requires a 50.0 μL porcine serum aliquot. Samples were kept frozen at −80° C. prior to analysis.
A matrix aliquot was fortified with internal standard. Analytes were isolated through protein precipitation. The eluate was evaporated under a nitrogen stream, and the remaining residue reconstituted. Final extracts were analyzed via HPLC MS/MS detection using positive ion electrospray.
Therefore, nominal time points were used for PK analyses. To estimate the serum concentration at time zero for intravenous (IV) data, a second-order polynomial regression was applied to the early serum time points (0.25, 1, and 2 hours). The intercept of the fitted polynomial curve was used as the extrapolated concentration at time zero. Skin concentration data (μg/mL) was normalized to total protein (mg/mL) per sample, resulting in values represented as μg/mg protein.
Pharmacokinetic parameters were calculated using noncompartmental methods performed in Microsoft Excel. The area under the concentration-time curve (AUC) was determined using the linear trapezoidal rule. For serum data, AUC0-7 was calculated using all available time points. For skin data, AUC1-7 was computed based on the three available time point measurements. The maximum observed concentration (Cmax) was identified directly from the dataset, and the time at which it occurred (Tmax) was recorded. All calculations were performed using Microsoft Excel.
Quantitation of total antibody, total ADC, and free payload (SN-38) from Trodelvy in porcine serum and tissue samples was performed via HPLC with MS/MS detection.

Sacituzumab govitecan [Trodelvy]
Local skin tolerability ([1]; Example 3: 1 mL SC, exposure times 4 hours or less): demonstrated local skin tolerability
Tissue samples/injections with multiple focal (immune cell) infiltrates in SC ([1]; pig, in vivo): 1/3
Focal instances of [immune] cell infiltrates in the SC space ([1]; pig, in vivo, sc): 2
Necrosis ([1]; pig, in vivo, sc): 0
Pathohistological findings (H&E) ([1]; pig, in vivo, sc): no findings
Free SN-38 detected, % of the total [2]: approximately 10%
Relative difference in serum AUC0-7, Free Payload [3]: 59%
Relative difference in serum AUC0-7, TAB [3]: 76%
Relative difference in serum AUC0-7, TADC [3]: 34%
Relative difference in serum Cmax, Free Payload [3]: 38%
Relative difference in serum Cmax, TAB [3]: 44%
Relative difference in serum Cmax, TADC [3]: 13%
TADC/Free Payload, Tmax ([3]; 50 mg): 100%
TADC/TAB, Tmax ([3]; 50 mg): 33%
AUC0-7 of free payload ([3]; iv): 0.1252 µg·days/mL
AUC0-7 of total ADC (TADC) ([3]; iv): 41.44 µg·days/mL
AUC0-7 of total antibody (TAB) ([3]; iv): 193.05 µg·days/mL
Cmax of free payload ([3]; iv): 95.3 ng/mL
Cmax of total ADC (TADC) ([3]; iv): 60550 ng/mL
Cmax of total antibody (TAB) ([3]; iv): 57600 ng/mL
Tmax of free payload ([3]; iv): 0 h
Tmax of total ADC (TADC) ([3]; iv): 0 h
Tmax of total antibody (TAB) ([3]; iv): 0 h
Total ADC Result ([3]; iv, 50 mg, 6 h): 43.9 µg/mL
Total ADC Result ([3]; iv, 50 mg, 24 h): 10 µg/mL
Total ADC Result ([3]; iv, 50 mg, 48 h): 2.27 µg/mL
Total ADC Result ([3]; iv, 50 mg, 72 h): 0.751 µg/mL
Total ADC Result ([3]; iv, 50 mg, 96 h): <0.500 µg/mL
Total ADC Result ([3]; iv, 50 mg, 168 h): 0.1 µg/mL
serum concentration of total ADC (TADC) ([3]; iv, 6 h): 43.90 µg/mL
serum concentration of total ADC (TADC) ([3]; iv, 24 h): 10.00 µg/mL
serum concentration of total ADC (TADC) ([3]; iv, 48 h): 2.27 µg/mL
serum concentration of total ADC (TADC) ([3]; iv, 72 h): 0.75 µg/mL
serum concentration of total ADC (TADC) ([3]; iv, 96 h): <0.50^b μg/mL
serum concentration of total ADC (TADC) ([3]; iv, 168 h): 0.10 µg/mL
Tmax of free payload ([3]; sc): 24 h
serum concentration of total ADC (TADC) ([3]; sc, 0 h): <0.10^b μg/mL
serum concentration of total ADC (TADC) ([3]; sc, 6 h): 4.96 µg/mL
serum concentration of total ADC (TADC) ([3]; sc, 24 h): 7.87 µg/mL
serum concentration of total ADC (TADC) ([3]; sc, 48 h): 2.77 µg/mL
serum concentration of total ADC (TADC) ([3]; sc, 72 h): 1.00 µg/mL
serum concentration of total ADC (TADC) ([3]; sc, 168 h): 0.13 µg/mL
